In the RNAGym collection of RNA variant scans (doi:10.1073/pnas.2313332121):

B1: TPR t1 (parent)
chain: GACCAAUCUGCCCUCAGAGCUCGAGAACAUCUUCGGAUGCAGAGGAGGCAGGCUUCGGUGGCGCGAUAGCGCCAACGUCCUCAACCUCCAAUGCAUCCCACCACAUGAUGAUGCCUGAAGAGCCUUGGUUUUUUG

Variants of: B1
Assay: polymerase ribozyme fitness, log enrichment relative to wild type (log ratio); higher = more active; in vitro selection for triplet polymerase activity
Procedure, shortened: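 Each subunit of a heterodimeric triplet polymerase ribozyme was mutagenized into a library by PCR, transcribed, and subjected to one round of in vitro selection, run in triplicate. Libraries were annealed with a biotinylated primer, the partner subunit and triplets, incubated frozen at −7 °C, and extended constructs were gel-excised, captured on streptavidin beads and recovered by RT-PCR. Input and output libraries were sequenced on Illumina, keeping genotypes with ≥10 input reads and ≥1 read per output. Fitness is log base 2 of genotype enrichment divided by wild-type enrichment, from inverse-variance-weighted replicate averages.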

Variant | polymerase ribozyme fitness (log ratio)
GACCAAUCUGCCCUCAGAGCUCGAGAACAUCUUCGGAUGCAGAUGUGGCAGGCUUCGGUGGCGCGAUAGUGCCAACGUCCUCAACCUCCAAUGCAUCCCACCACAUGAUGAUGCCUGAAGAGCCUUGGUUUUUUG [G44U A46U C70U] | -3.55
GACCAAUCUGCCCUCAGAGCUCGAGAACAUCUUCGGAUGCAGAUGAGGCAGGCUUCGGUGGCGCGAUAGCGCCAACGUCCUCACCCUCCACUGCAUCCCACCACAUGAUGAUGCCUGAAGAGCCUUGGUUUUUUG [G44U A84C A91C] | -1.65
GACCAAUCUGCCCUCAGAGCUCGAGAACAUCUUCGGAUGCAGAUGAGGCAGGCUUCGGUGGCGCGAUAGCGCCAACGUCCUCAUCCUCCAAUGCAUCCCACCACAUGAUGAUGCCUGGAGAGCCUUGGUUUUUUG [G44U A84U A118G] | -2.17
GACCAAUCUGCCCUCAGAGCUCGAGAACAUCUUCGGAUGCAGAUGAGGCAGGCUUCGGUGGCGCGAUAGCGCCAACGUCCUCAACCUCCACUACAUCCCACCACAUGAUGAUGCCUGAAGAGCCUUGGUUUUUUG [G44U A91C G93A] | -1.99
GACCAAUCUGCCCUCAGAGCUCGAGAACAUCUUCGGAUGCAGAUGAGGCAGGCUUCGGUGGCGCGAUAGCGCCAACGUCCUCAACCUCCAAUGCCUCCCACCACAUGAUGAUGCCUGAAGAGCCUUGGUUUUUUG [G44U A95C] | -2.44
GACCAAUCUGCCCUCAGAGCUCGAGAACAUCUUCGGAUGCAGAUGAGGAAGGCUUCGGUGGCGCGAUAGCGCCAACGUCCUCAACCUCCAAUGCAUCCCACCACAUGAUAAUGCCUGAAGAGCCUUGGUUUUUUG [G44U C49A G110A] | -3.22
GACCAAUCUGCCCUCAGAGCUCGAGAACAUCUUCGGAUGCAGAUGAGGCAGGCUUAGGUGGCGCGAUAGCGCCAACGUCCUCAACCUCCAAUGCAUCCCACUACAUGAUGAUGCCUGAAGAGCCUUGGUUUUUUG [G44U C56A C102U] | -3.03
GACCAAUCUGCCCUCAGAGCUCGAGAACAUCUUCGGAUGCAGAUGAGGCAGGCUUUGGUGGCGCGAUAGCGCCAACGUCCUCAACCCCCAAUGCAUCCCACCACAUGAUGAUGCCUGAAGAGCCUUGGUUUUUUG [G44U C56U U87C] | -1.16
GACCAAUCUGCCCUCAGAGCUCGAGAACAUCUUCGGAUGCAGAUGAGGCAGGCUUCGGUGGAGCGAUAGCGCCAACGUCCUCAACCUCCGAUGCAUCCCACCACAUGAUGAUGCCUGAAGAGCCUUGGUUUUUUG [G44U C62A A90G] | -2.16
GACCAAUCUGCCCUCAGAGCUCGAGAACAUCUUCGGAUGCAGAUGAGGCAGGCUUCGGUGGAGCGAUAGCGCCAACGUCCUCAACCUCCAAUGCAUCCCAGCACAUGAUGAUGCCUGAAGAGCCUUGGUUUUUUG [G44U C62A C101G] | -4.35
GACCAAUCUGCCCUCAGAGCUCGAGAACAUCUUCGGAUGCAGAUGAGGCAGGCUUCGGUGGCGCGAUAGAGCUAACGUCCUCAACCUCCAAUGCAUCCCACCACAUGAUGAUGCCUGAAGAGCCUUGGUUUUUUG [G44U C70A C73U] | -2.95
GACCAAUCUGCCCUCAGAGCUCGAGAACAUCUUCGGAUGCAGAUGAGGCAGGCUUCGGUGGCGCGAUAGAGCCAACGUCCUCAACCUCCAAUGCAUCCCACCACAUGAUGAUGCCUGAAGAGCCUUGGAUAUUUG [G44U C70A U129A U131A] | -3.71
GACCAAUCUGCCCUCAGAGCUCGAGAACAUCUUCGGAUGCAGAUGAGGCAGGCUUCGGUGGCGCGAUAGUGCCAACGUCCUCAACCUCCAAUGCAUCCCACCACAUGAUGAUGCCUGAAGAGCCUUGGUUUUUUG [G44U C70U] | -2.01
GACCAAUCUGCCCUCAGAGCUCGAGAACAUCUUCGGAUGCAGAUGAGGCAGGCUUCGGUGGCGCGAUAGCGGCAACGUCCUCAACCUCCAAUGCAUCCCACCACAUGAUGAUGCCUGAAGAGCCUUGGUUUUUUG [G44U C72G] | -1.28
GACCAAUCUGCCCUCAGAGCUCGAGAACAUCUUCGGAUGCAGAUGAGGCAGGCUUCGGUGGCGCGAUAGCGCGAACGUCCUCAACCUCCAAUGCAUCCCACUACAUGAUGAUGCCUGAAGAGCGUUGGUUUUUUG [G44U C73G C102U C124G] | -1.03
GACCAAUCUGCCCUCAGAGCUCGAGAACAUCUUCGGAUGCAGAUGAGGCAGGCUUCGGUGGCGCGAUAGCGCUAACGUCCUCAACCUCCAAUGCAUCCCACCACAUGAUGAUCCCUGAAGGGCCUUGAUUUUUUG [G44U C73U G113C A121G G128A] | -4.53
GACCAAUCUGCCCUCAGAGCUCGAGAACAUCUUCGGAUGCAGAUGAGGCAGGCUUCGGUGGCGCGAUAGCGCCAACGUGCUCAACCUCCACUGCAUCCCACCACAUGAUGAUGCAUGAAGAGCCUUGGUUUUUUG [G44U C79G A91C C115A] | -5.13
GACCAAUCUGCCCUCAGAGCUCGAGAACAUCUUCGGAUGCAGAUGAGGCAGGCUUCGGUGGCGCGAUAGCGCCAACGUCCUUAACCUCAAAUGCAUCCCACCACAUGAUGAUGCCUGAAGAGCAUUGGUUUUUUG [G44U C82U C89A C124A] | 1.91
GACCAAUCUGCCCUCAGAGCUCGAGAACAUCUUCGGAUGCAGAUGAGGCAGGCUUCGGUGGCGCGAUAGCGCCAACGUCCUCAACCUCCAAUGAAUCCCACCACAUGAUGAUGCCUGAAGAGCCUUGGUUUUUUG [G44U C94A] | -2.53
GACCAAUCUGCCCUCAGAGCUCGAGAACAUCUUCGGAUGCAGAUGAGGCAGGCUUCGGUGGCGCGAUAGCGCCAACGUCCUCAACCUCCAAUGGAUCCCACCACAUGAUGAUGCCUGAAGAGCCUUGGUUUUUUG [G44U C94G] | -3.91
GACCAAUCUGCCCUCAGAGCUCGAGAACAUCUUCGGAUGCAGAUGAGGCAGGCUUCGGUGGCGCGAUAGCGCCAACGUCCUCAACCUCCAAUGCAUGCCACCACAUGAUGAUACCUGAAGAGCCUUGGUUUUUUG [G44U C97G G113A] | -5.15
